Numbering of substitutions follows the chain as printed. Each block holds one binder with its values, some of them ahead of it.
Key:
[1] = biological target: T1, PD-L1 on PD-L1 cells (Promega, CS178103; PD1/PD-L1 Blockade Bioassay J1250/J1255) (UniProt Q9NZQ7 19-290); assay: cell-based or functional assay
[2] = biological target: T2, Cyno PD-L1-rCD4-His (cynomolgus); assay: SPR; G1/929_01_A02 on PD-L1-rCD4-His (Table 8) against G1AA/E12v2 on PD-L1-His (Table 9)
T2 construct: The entry as printed begins with the signal peptide; also called cynomolgus PD-L1-rCD4-His
T2 sequence (chain, as listed by the source limits assumed): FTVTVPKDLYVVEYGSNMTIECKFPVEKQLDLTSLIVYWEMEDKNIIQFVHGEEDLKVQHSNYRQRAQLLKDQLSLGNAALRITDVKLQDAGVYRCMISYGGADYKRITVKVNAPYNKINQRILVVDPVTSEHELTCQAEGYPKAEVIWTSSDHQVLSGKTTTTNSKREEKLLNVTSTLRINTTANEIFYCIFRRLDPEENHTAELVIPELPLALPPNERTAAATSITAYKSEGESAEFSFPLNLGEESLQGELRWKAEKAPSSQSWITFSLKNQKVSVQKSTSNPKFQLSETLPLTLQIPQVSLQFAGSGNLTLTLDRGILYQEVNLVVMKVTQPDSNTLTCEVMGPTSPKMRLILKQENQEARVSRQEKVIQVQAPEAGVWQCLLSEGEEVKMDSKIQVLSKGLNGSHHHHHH

[3] = biological target: T3, human PD-L1-rCD4-His (human); assay: as above
T3 construct: Human PD-L1 fused to the monomeric C-terminal rat CD4 domains 3 and 4 tag and His tag; made in HEK293; The entry as printed begins with the signal peptide (MRIF...); also called hPD-L1-rCD4-His; hu-PD-L1-rCD4-His
T3 sequence (chain, as listed by the source limits assumed): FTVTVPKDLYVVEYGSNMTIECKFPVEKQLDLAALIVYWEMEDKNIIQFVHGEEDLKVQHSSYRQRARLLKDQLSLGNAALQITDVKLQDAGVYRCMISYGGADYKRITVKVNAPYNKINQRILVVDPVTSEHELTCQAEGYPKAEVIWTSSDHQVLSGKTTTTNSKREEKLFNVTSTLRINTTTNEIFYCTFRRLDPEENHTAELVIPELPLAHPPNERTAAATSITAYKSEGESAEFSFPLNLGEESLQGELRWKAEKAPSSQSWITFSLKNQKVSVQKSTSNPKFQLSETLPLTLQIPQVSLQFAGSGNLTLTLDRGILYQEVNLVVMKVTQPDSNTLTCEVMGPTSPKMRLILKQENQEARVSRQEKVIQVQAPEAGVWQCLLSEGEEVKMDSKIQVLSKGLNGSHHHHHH

[4] = biological target: T2, Cyno PD-L1-rCD4-His; assay: SPR, IgG1 from culture supernatant
[5] = biological target: T3, human PD-L1-rCD4-His; assay: SPR, IgG1 from culture supernatant
[6] = biological target: T1, PD-L1 on PD-L1 cells (Promega, …); assay: cell-based or functional assay; remark: listed apart in the source
[7] = biological target: mouse PD-L1 on LK35.2 cells (LK35.2 mPD-L1) (mouse, UniProt Q9EP73 19-290); assay: cell-based or functional assay
Sequence of mouse PD-L1 on LK35.2 cells (LK35.2 mPD-L1) (Q9EP73 19-290): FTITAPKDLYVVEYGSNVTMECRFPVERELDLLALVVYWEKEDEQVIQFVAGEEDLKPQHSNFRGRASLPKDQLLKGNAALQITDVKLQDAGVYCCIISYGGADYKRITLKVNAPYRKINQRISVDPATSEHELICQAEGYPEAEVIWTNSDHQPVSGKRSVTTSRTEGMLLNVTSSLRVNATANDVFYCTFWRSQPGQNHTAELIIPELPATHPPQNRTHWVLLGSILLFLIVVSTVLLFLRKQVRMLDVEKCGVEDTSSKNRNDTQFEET

[8] = biological target: T4, biotinylated human PD-L1-Avi-His (Acro Biosystems, PD1-H82E5) (human, UniProt Q9NZQ7 19-238, biotinylated); assay: SPR; end of the range tied to this clone by the KD values of Table 4
T4 construct: Bought
T4 sequence (Q9NZQ7 19-238 limits assumed): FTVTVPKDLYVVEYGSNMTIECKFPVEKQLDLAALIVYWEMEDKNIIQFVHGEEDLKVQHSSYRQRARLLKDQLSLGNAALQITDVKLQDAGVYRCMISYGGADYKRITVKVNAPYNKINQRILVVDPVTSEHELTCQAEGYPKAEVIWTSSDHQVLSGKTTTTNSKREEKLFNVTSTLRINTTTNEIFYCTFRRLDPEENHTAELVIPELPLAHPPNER
Method: (§1) Briefly, the anti-PD-L1 mAbs, diluted in HBS-EP buffer (GE Healthcare, BR100188) at 2 μg/ml, were injected individually on flows cell 2, 3 and 4 of a Protein A chip (GE Healthcare, 29127556) at 30 μl/min to achieve a final response of approximately 110 RU. The recombinant human, cynomolgus and mouse PD-L1-His antigens, diluted in HBS-EP buffer, were injected on flow cell 1, 2, 3 or 4 as appropriate at a concentration range of 81 nM to 0.037 nM with 3-fold dilutions for 4 min at 75 μl/min and then allowed to dissociate in buffer for 10 min. Regeneration was achieved by injecting 10 mM glycine-HCL pH1.5 (GE Healthcare, Human Antibody Capture Kit, BR00356) for 30 sec at a rate of 30 μl/min. Subtracted data (flow cell 2-flow cell 1, flow cell 3-flow cell 1, or flow cell 4-flow cell 1) were analysed using BIAevaluation 3.2 Software (GE Healthcare) to identify binding using the model 1:1 binding with mass transfer, with refractive index (RI) constant 0. To determine the affinities of the mouse PD-L1 binding curves, the Rmax of the corresponding human binding profiles was used.

[9] = biological target: T5, human PD-L1 on HEK293 cells (HEK293.hPD-L1) (human, UniProt Q9NZQ7 19-290); assay: flow cytometry on HEK293 cells expressing human PD-L1, GMFI against concentration
T5 construct: Flp-In T-REx 293 cells stably overexpressing human PD-L1; also called cell surface human PD-L1
T5 sequence (Q9NZQ7 19-290): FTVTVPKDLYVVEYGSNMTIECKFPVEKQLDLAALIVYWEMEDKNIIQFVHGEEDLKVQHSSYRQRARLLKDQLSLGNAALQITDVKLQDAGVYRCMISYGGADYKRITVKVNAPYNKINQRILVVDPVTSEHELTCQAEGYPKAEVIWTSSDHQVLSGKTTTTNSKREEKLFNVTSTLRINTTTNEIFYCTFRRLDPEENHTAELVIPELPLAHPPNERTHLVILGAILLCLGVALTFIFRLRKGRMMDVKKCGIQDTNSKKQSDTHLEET
Method: Non-specific binding was also assessed by testing binding to HEK293 parental cells lacking human PD-L1 (Flp-In T-Rex 293 cell line, Life Technologies, R780-07).
HEK293 and HEK293.hPD-L1 suspensions were prepared in PBS containing 0.5% BSA (Sigma. A7906) and seeded at 1×10⁵ cell/well in 100 μl in round bottomed 96-well plates (VWR, 734-1797). […] The washed cells were resuspended in the diluted antibody mixture, incubated at 4° C. for 30 minutes, and then washed once in PBS. 100 μl/well of secondary antibody (Alexa Fluor 647-AffiniPure Goat Anti-Human IgG, F(ab′)2 Fragment Specific, Stratech Scientific, 109-605-006-JIR) diluted 1:1000 in PBS was then added, the cells/antibody mixture was incubated for 20 mins at 4° C., and the cells were then washed again with PBS and resuspended in 100 μl of PBS containing 7AAD (1:1000, Biotium, 40043) before being analysed using a Canto II flow cytometer (BD Bioscience). Dead cells were excluded and the fluorescence in the FITC channel (488 nm/530/30) was measured. The geometric mean fluorescence intensity (GMFI) values were plotted against the log concentration of antibody and the resulting curves were fitted using the log (agonist) versus response equation in GraphPad Prism.

[10] = biological target: T6, mouse PD-L1-His (Acro Biosystems, PD1-M5220) (mouse, UniProt Q9EP73 19-238); assay: SPR (Biacore T200), mAb on Protein A chip, antigen 81-0.037 nM; Rmax of the human profile used
T6 construct: Bought; also called recombinant mouse PD-L1
T6 sequence (Q9EP73 19-238 limits assumed): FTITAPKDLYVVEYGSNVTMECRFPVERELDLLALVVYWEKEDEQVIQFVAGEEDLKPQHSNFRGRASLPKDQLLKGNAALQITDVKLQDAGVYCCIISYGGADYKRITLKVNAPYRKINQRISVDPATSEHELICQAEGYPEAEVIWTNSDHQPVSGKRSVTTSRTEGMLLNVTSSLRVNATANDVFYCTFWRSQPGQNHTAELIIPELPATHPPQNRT
Method: as §1

[11] = biological target: T7, cynomolgus PD-L1-His (Acro Biosystems, PD1-C52H4) (cynomolgus, UniProt G7PSE7 19-239); assay: SPR (Biacore T200), mAb on Protein A chip, antigen 81-0.037 nM
T7 construct: Bought; also called Cyno PD-L1-His
T7 sequence (G7PSE7 entry or part of it): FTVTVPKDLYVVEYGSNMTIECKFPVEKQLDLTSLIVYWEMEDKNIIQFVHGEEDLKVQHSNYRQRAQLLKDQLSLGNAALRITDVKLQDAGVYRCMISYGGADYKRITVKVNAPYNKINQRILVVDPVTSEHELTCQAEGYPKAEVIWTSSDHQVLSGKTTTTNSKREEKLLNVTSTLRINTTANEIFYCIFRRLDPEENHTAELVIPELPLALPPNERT
Method: as §1

[12] = biological target: T4, biotinylated human PD-L1-Avi-His (Acro …); assay: as above
Method: as §1

T1 sequence (Q9NZQ7 19-290): as the sequence (Q9NZQ7 19-290) above

B1: G1/280_02_G02 (antibody, human IgG1, V domains shown)
VH: EVQLVQSGAEVKRPGASVKVSCKASGYTFTSYGISWVRQAPGQGLEWMGWISAYNGNTNYAQKLQGRVTMTTDTSTSTAYMELRSLRSDDTAVYYCARDLFPTIFGVSYYYYWGQGTLVTVSS
VL: QSALTQPASVSGSPGQSITISCTGTSSDVGGYNSVSWYQQFPGKAPKLMIFEVTNRPSGVSDRFSGSKSDNTASLTISGLQAEDEAEYYCSSFKRGSTLVVFG
- half maximal effective concentration (EC50), dose-response co-culture reporter assay (luciferase) [1]: 4.2 nM

B2: G1/929_01_A02 (antibody, human IgG1, V domains shown)
VH: B1 VH with N55S, N57G
VL: DIQMTQSPSTLSASVRDRVIITCRASQSIGNRLAWYQHKPGKAPKLLIYEASTSETGVPSRFSGSGSGTDFTLTISSLQPEDFATYYCQQSYSTPYTFGQGTKLEIKR
notes: IgG1; The heavy chain as printed has T28
- fold lower affinity than G1AA/E12v2 [2]: > 10 fold
- fold lower affinity than G1AA/E12v2 [3]: > 10 fold
- Kd [4]: 3.64 nM
- Kd [5]: 3.07 nM

Now from value to binder:

- IC50 (nM), PD1/PD-L1 Blockade Bioassay [6]: 0.36 nM
- EC50 (nM), mPD-L1 DO11.10 T Cell Activation Assay (IL-2 release) [7]: 4.37 nM
- Emax (pg/ml), mPD-L1 DO11.10 T Cell Activation Assay (IL-2 release) [7]: 2110 pg/mL
- fold higher binding affinity than G1AA/280_02_G02_NS [8]: 1.8 to 4.8 fold
- EC50 [9]: 0.29 nM
- Kd [10]: 223 nM
- Kd [4]: 0.59 nM
- Kd [5]: 0.48 nM
- Kd [11]: 0.49 nM
- Kd [12]: 0.6 nM
B3: G1/894_08_E05 (antibody, human IgG1, V domains shown)
VH: B1 VH with G56S
VL: DIQMTQSPSTLSASVGDRVTITCRASQSISGRLAWYQQKPGKAPNLLIYEASNLESGVPSRFSGSGSGTEFTLTISSLQPEDFATYYCQQSYSTPRVTFGQGTKVEIKR
notes: IgG1 without LALA, kappa light chain; also called G1/894_8_E05

- IC50 (nM), PD1/PD-L1 Blockade Bioassay [6]: 0.33 nM
- EC50 (nM), mPD-L1 DO11.10 T Cell Activation Assay (IL-2 release) [7]: 2.71 nM
- Emax (pg/ml), mPD-L1 DO11.10 T Cell Activation Assay (IL-2 release) [7]: 1910 pg/mL
- EC50 [9]: 0.27 nM
- Kd [10]: 225 nM
- Kd [4]: 0.5 nM
- Kd [5]: 0.36 nM
- Kd [11]: 0.45 nM
- Kd [12]: 0.39 nM
B4: G1/887_04_G12 (antibody, human IgG1, V domains shown)
VH: B1 VH with G56S
VL: DIQMTQSPSTLSASVGDRVTITCRASQSISGRLAWYQQKPGKAPNLLIYEASNLESGVPSRFSGSGSGTEFTLTISSLQPEDFATYYCQQSYSWPRTFGQGTKVEIKR
notes: IgG1 without LALA, kappa light chain

- IC50 (nM), PD1/PD-L1 Blockade Bioassay [6]: 0.35 nM
- EC50 (nM), mPD-L1 DO11.10 T Cell Activation Assay (IL-2 release) [7]: 1.02 nM
- Emax (pg/ml), mPD-L1 DO11.10 T Cell Activation Assay (IL-2 release) [7]: 1970 pg/mL
- fold higher binding affinity than G1AA/280_02_G02_NS [8]: 1.8 to 4.8 fold
- EC50 [9]: 0.26 nM
- Kd [10]: 38 nM
- Kd [4]: 0.25 nM
- Kd [5]: 0.21 nM
- Kd [11]: 0.28 nM
- Kd [12]: 0.23 nM
B5: G1/887_04_E12 (antibody, human IgG1, V domains shown)
VH: B1 VH with T28P, G56S
VL: B2 VL
notes: IgG1 without LALA, kappa light chain; proline at Kabat position 28 of VH
